Reference: US20220033501A1 (SHANGHAI PHARMAEXPLORER, published 2022)

T1: murine TIM-3 extracellular domain protein with hFc tag (mTIM-3-hFc) (mouse, UniProt Q8VIM0 29-191)
T1 construct: also called mouse TIM-3 extracellular domain protein; not shown: human IgG Fc fragment (hFc) of the pCpC vector
T1 chain: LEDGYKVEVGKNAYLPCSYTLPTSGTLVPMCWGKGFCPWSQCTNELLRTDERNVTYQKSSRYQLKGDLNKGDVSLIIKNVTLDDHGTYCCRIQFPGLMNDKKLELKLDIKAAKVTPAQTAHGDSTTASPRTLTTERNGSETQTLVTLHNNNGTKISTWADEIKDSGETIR

T2: monkey TIM-3 extracellular domain protein with hFc tag (cTIM-3-hFc) (monkey)
T2 construct: not shown: human IgG Fc fragment (hFc) of the pCpC vector
T2 chain: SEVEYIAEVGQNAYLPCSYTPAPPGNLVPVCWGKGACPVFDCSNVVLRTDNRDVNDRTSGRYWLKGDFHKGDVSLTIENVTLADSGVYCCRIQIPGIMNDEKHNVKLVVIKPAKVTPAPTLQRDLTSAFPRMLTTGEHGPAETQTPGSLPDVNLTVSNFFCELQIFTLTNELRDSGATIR

T3: monkey TIM-3 on CHOK1 stable cell line (CHOK1-cTIM-3) (monkey)
T3 chain: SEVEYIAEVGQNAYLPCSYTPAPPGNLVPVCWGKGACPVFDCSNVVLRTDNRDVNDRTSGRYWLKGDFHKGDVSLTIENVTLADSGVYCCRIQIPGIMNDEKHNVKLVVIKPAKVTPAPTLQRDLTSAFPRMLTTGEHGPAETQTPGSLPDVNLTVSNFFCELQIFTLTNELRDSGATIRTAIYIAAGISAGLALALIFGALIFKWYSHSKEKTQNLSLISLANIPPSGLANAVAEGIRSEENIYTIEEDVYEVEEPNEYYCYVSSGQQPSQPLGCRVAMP

T4: human TIM-3 extracellular domain protein with hFc tag (hTIM-3-hFc) (human, UniProt Q8TDQ0 22-200)
T4 construct: not shown: human IgG Fc fragment (hFc) of the pCpC vector
T4 sequence: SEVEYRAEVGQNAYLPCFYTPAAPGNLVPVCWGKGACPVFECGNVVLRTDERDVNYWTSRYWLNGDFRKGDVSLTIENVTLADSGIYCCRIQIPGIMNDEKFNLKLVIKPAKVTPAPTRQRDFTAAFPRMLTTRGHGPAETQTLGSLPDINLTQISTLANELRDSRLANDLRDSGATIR


Legend:
[1] = target: T1, murine TIM-3 extracellular domain …; assay: ELISA, coated mouse TIM-3 ECD protein, 66.667 nM antibody
[2] = target: T2, monkey TIM-3 extracellular domain …; assay: ELISA, coated monkey TIM-3 ECD protein, 0.0001 nM antibody
[3] = target: T3, monkey TIM-3 on CHOK1 stable cell line …; assay: FACS, CHOK1-cTIM-3 cells, 8 nM antibody
[4] = target: T2, monkey TIM-3 extracellular domain …; assay: ELISA, coated monkey TIM-3 ECD protein, 66.667 nM antibody
[5] = target: T1, murine TIM-3 extracellular domain …; assay: ELISA, coated mouse TIM-3 ECD protein, 6.6667 nM antibody
[6] = target: T4, human TIM-3 extracellular domain …; assay: ELISA, coated human TIM-3 ECD protein, 66.667 nM antibody
[7] = target: T2, monkey TIM-3 extracellular domain …; assay: ELISA, coated monkey TIM-3 ECD protein, 0.0067 nM antibody
[8] = target: T3, monkey TIM-3 on CHOK1 stable cell line …; assay: FACS, CHOK1-cTIM-3 cells, 0.32 nM antibody

OD450 [1] | OD450 [2] | Mean fluorescence intensity [3] | OD450 [4] | OD450 [5] | OD450 [6] | OD450 [7] | Mean fluorescence intensity [8] | Binder
0.81 | 0.14 | 475 | 3.27 | 0.31 | 2.78 | 0.33 | 127 | 18D2H2 fully human TIM-3 antibody (human IgG4, kappa) (antibody, V domains shown) VH: EVQLVESGGDLVQPGGSLRLSCAASGFTFSTYWMTWVRQAPGRGLEWVANIKQDGSAKYYVDSVKGRFTLSRDDAKNSLYLQMNSLRAEDTAVYYCARGSNWFDYWGQGTLVTVSS VL: ETVMTQSPATLSVSPGERATLSCRANQNVYSNLAWYQQKPGQAPRLLIYDASTRATGFPARFSGSGSGTEFTLTISSLQSEDFAVYYCQQYNNWPLTFGGGTKVEIK
1.28 | 0.17 | 349 | 3.38 | 0.41 | 3.01 | 0.3 | 132 | 39E5H1 fully human TIM-3 antibody (human IgG4, kappa) (antibody, V domains shown) VH: EVQLVESGGGLVQPGGSLRLSCAASGFTFSSYWMSWVRQAPGKGLEWVANIKRGGSERYYVDSVKGRFTISGDNAKNSVYLQMNSLRAEDTAVYYCARGSNWFDPWGQGTLVTVSS VL: ETVMTQSPAILSVSPGERATLSCRASQSVYSNLAWYQQKLGQAPRLLIYDASTRATGIPARFSGSGSGTEFTLTISSLQSEDFAVYYCQQYNNWPITFGQGTRLEIK
1.38 | 0.17 | 340 | 3.39 | 0.44 | 3.1 | 0.37 | 109 | 34B6D8 fully human TIM-3 antibody (human IgG4, kappa) (antibody, V domains shown) VH: EVQLVESGGGLVQPGGSLRLSCAASGFTFSTYWMTWVRQAPGKRLEWVANIKQGGGDKYYVDSVKGRFTISTDNAKNSLYLQMNSLRAEDTAVYYCARGSNWFDPWGQGTLVTVSS VL: EIVMTQSPATLSMSPGERATLSCRASQSVYDNLAWYQQKPGQAPRLLIYGASTRATGIPARFSGSGSGTEFTLTISSLQSEDFALYYCQQYTHWPITFGQGTRLEIK
0.99 | 0.13 | 325 | 3.26 | 0.36 | 3.02 | 0.18 | 52.7 | 7A4F10 fully human TIM-3 antibody (human IgG4, kappa) (antibody, V domains shown) VH: EVQLLESGGGLVQPGGSLRLSCAASGFTFRTHLISWVRQAPGKGLEWVAAITGSGGSTYYADSVKGRFIISRDNSKNTLFLQMNSLRAEDTAVYYCAKDGGSGSYDDFWGQGTLVTVSS VL: ETVLTQSPVTLSLSPGERATLSCRASQSVGSYLAWYQQKPGQAPRLLIYDASNRATGIPARFSGSGSGTDFTLTISSLEPEDFAVYYCQQRSNWPPTFGQGTKVEIK
